According to the supplement of paper PMC10567573:

B1: ATE1 (parent)
chain: DYFPSEDFYRCGYCKNESGSRSNG

Variants of: B1
Assay: protein stability index of a GFP-peptide fusion (GPS, HEK-293T) (PSI 1-6); higher = more stable
Conditions: c terminus: a fixed tail appended
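Also: lentivirally expressed fusions sorted by FACS into six bins by GFP to DsRed ratio, PSI derived from sequencing read proportions per bin multiplied by bin number.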

Protein stability index: each site, then its substitutions
K15: P 3.41 | D 2.74 | R 1.17 | Y 2.89 | W 2.25 | F 2.65 | I 2.18 | E 2.46 | S 2.42 | Q 2.65 | T 1.85 | C 2.17 | G 1.95 | A 1.59 | H 1.64 | L 1.82 | M 3.08 | V 2.18 | N 2.28
E6: F 1.56 | R 1.53 | L 1.85 | W 2.04 | M 2.38 | V 1.45 | K 1.35 | P 2.24 | Q 1.92 | D 1.92 | T 2.94 | Y 1.74 | S 1.8 | A 1.81 | N 1.68 | C 1.85 | H 2.17 | G 1.65
S20: T 1.88 | G 2.53 | D 2.25 | H 2.1 | C 1.86 | N 1.79 | I 2.01 | P 2.36 | E 2.5 | M 2.51 | L 1.33 | K 2.36 | V 2.25 | F 1.72 | Y 1.75 | A 2.83 | R 2.07 | Q 1.94
G19: Y 1.6 | V 2.14 | T 2.04 | Q 2.9 | M 1.38 | H 2.03 | R 1.76 | L 2 | S 2.15 | F 1.56 | I 2.65 | K 1.95 | P 2.57 | C 1.93 | A 1.61 | D 2.45 | W 3.29 | N 1.84 | E 2.52
G24: H 2.04 | M 1.89 | I 2.34 | L 2.15 | F 1.92 | C 1.93 | E 2.67 | D 2.26 | N 2.09 | A 1.88 | K 2.83
F8: D 2.44 | A 2.32 | N 2.16 | R 2.91 | M 2.56 | Q 2.81 | E 3.77 | H 2.19 | C 2.54 | K 2.49 | V 3.1 | T 2.63 | Y 1.93 | I 2.35 | P 3 | G 2.48 | L 2.19
S5: V 2.16 | R 1.7 | Y 2.83 | T 2.15
R21: I 1.79 | T 2.24 | H 2.19 | Q 2.67 | P 2.69 | A 2.54 | D 3.09 | K 2.61 | E 2.44 | Y 1.79 | G 2.79 | N 2.47 | V 2.5 | W 2.03 | F 2.39 | S 2.22 | M 2.08 | L 1.58 | C 2.83
C11: Q 4.36 | Y 3.42 | W 4.12 | G 4.36 | K 4.17 | R 3.9 | L 2.96 | P 4.15 | I 3.83 | T 4.55 | D 4.21 | V 3.73 | F 3.46 | A 3.73 | M 4.12 | S 3.54 | H 4.4 | N 3.84 | E 4.92
Y13: M 3.8 | C 2.18 | T 3.93 | K 3.5 | Q 3.52 | W 3.73 | H 3.21 | R 2.23 | N 3.83 | I 2.91 | P 3.75 | A 2.76 | L 2.03 | S 3.69 | G 3.4 | E 4.41 | F 2.4
R10: T 2.2 | L 1.69 | K 2.44 | A 2.71 | H 1.82 | G 2.35 | M 2.21 | I 1.88 | C 1.43 | P 2.47 | F 1.98 | W 2.33 | V 3.04 | Y 2.99 | E 2.6 | S 2.2 | D 2.31
N23: W 2.6 | K 2.51 | Q 2.53 | R 1.76 | F 1.26 | T 2.1 | C 1.28 | E 2.29 | P 1.91 | V 1.25 | S 2.32 | M 1.52 | H 2.16 | D 2.1 | L 2.65 | I 1.52
E17: R 2.78 | C 1.63 | A 1.74 | L 2.17 | G 1.96 | H 2.14 | Q 1.9 | K 2.33 | I 1.38 | W 1.78 | S 1.83 | P 1.37 | D 2.44 | T 2.77 | Y 1.49 | N 2 | F 1.71 | V 1.4 | M 2.45
C14: N 3.4 | Y 3.04 | V 4.1 | W 3.43 | Q 3.69 | I 3.97 | D 4.47 | G 3.81 | S 3.94 | R 3.8 | M 4.25 | F 3.44 | E 4.6 | A 4.24 | L 3.28 | H 4.16 | T 4.36 | P 3.53 | K 3.65
Y9: P 2.57 | C 3.12 | L 2.01 | D 2.42 | V 2.21 | M 2.69 | W 2.46 | Q 2.14 | A 2.99 | N 2.18 | H 1.82 | T 2.98 | E 2.43 | S 2.36 | F 1.92 | I 1.88 | K 2.37
S18: Q 2.37 | C 1.08 | E 2.53 | L 1.84 | W 2.05 | Y 1.69 | H 1.95 | A 2.67 | F 3.12 | K 2.33 | M 1.24 | T 2.07 | P 2.2 | N 1.35 | R 1.68 | V 2.17 | I 1.53
G12: E 3.04 | T 2.99 | L 2.63 | V 2.4 | K 2.68 | D 3.03 | P 1.93 | C 2.01 | M 2.77 | F 3.18 | Q 2.64 | Y 2.49 | S 3.15 | R 4.05 | I 2.84 | N 2.69 | W 3.35 | A 3.25
S22: H 2.01 | N 2.07 | I 2.54 | M 3.37 | Y 2.42 | R 1.68 | Q 2.6 | G 2.04 | W 2.33 | P 2.46 | C 2.17 | A 1.85 | F 1.58 | D 2.6 | E 2.52 | K 2.02 | T 1.82 | L 1.57 | V 2.12
N16: Q 1.77 | R 2.1 | T 1.97 | Y 2.43 | W 1.41 | C 1.47 | M 2.62 | P 2.23 | H 2 | I 1.74 | V 1.74 | A 3.01 | F 1.62 | D 2.79 | L 1.53
D7: Q 3.11 | F 1.17 | K 2.53 | G 1.85 | H 1.76 | A 1.63 | W 1.7 | N 2.28 | P 2.71 | R 1.93 | T 2.15 | M 1.83 | Y 2.85 | I 1.11 | L 2.29 | S 2.24
